Measurements from publication PMC4728560, “TCTP contains a BH3-like domain, which instead of inhibiting, activates Bcl-xL” (Scientific Reports, 2016).
Like-named read-outs stand apart in the source and are kept apart here.

Assays:
[1] = target: Bcl-xL, recombinant protein (human) (UniProt Q07817); experiment: ITC; peptide titrated into Bcl-xL in the cell; 30 °C, 50 mM ammonium bicarbonate pH 9; ITC200 calorimeter
[2] = target: Bcl-xL, recombinant protein (human) (UniProt Q07817); experiment: as above; remark: listed apart in the source

Bcl-xL, recombinant protein (human), sequence (Q07817 whole entry): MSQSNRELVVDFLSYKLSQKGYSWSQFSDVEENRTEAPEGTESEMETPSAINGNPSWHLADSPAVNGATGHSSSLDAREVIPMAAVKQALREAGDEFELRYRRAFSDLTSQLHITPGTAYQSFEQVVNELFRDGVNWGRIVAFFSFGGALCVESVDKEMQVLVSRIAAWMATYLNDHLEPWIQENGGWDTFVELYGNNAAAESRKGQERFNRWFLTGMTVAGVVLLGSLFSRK

Kd [1]: 12 µM
Kd [2]: 10 to 15 µM
B1: TCTP_(11–31) peptide (peptide)
peptide: DEMFSDIYKIREIADGLCLEV
